# Laboratory results taken from the supplement of paper PMC9112550, “Optimization of the antimicrobial peptide Bac7 by deep mutational scanning” (BMC Biology, 2022).
# Test system: Escherichia coli TOP10
# Assay: shrunken log2 fold change of peptide-encoding DNA abundance (4.5 h post-induction vs induction); higher = less antimicrobial activity (less host growth inhibition)
# Details: time post-induction: 4.5 h; library: site-saturation at positions 5, 18, 19, 20
# 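Further: peptides expressed intracellularly from a pBAD plasmid library in pooled LB shake-flask culture, induced with 0.3% L-arabinose, DNA abundance read by NGS, three biological replicates, DESeq2 with apeglm shrinkage.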
row,Sequence,shrunken log2 fold change
1,RRIRQRPPRLPRPRPRPNCKPRP,-0.555
2,RRIRVRPPRLPRPRPRPTHHPRP,0.586
3,RRIRVRPPRLPRPRPRPHPKPRP,0.0188
4,RRIRTRPPRLPRPRPRPEITPRP,-0.0572
5,RRIRPRPPRLPRPRPRPRTQPRP,0.223
6,RRIRSRPPRLPRPRPRPCAPPRP,0.0418
7,RRIRYRPPRLPRPRPRPISIPRP,-0.134
8,RRIRMRPPRLPRPRPRPMLKPRP,0.197
9,RRIRFRPPRLPRPRPRPDHTPRP,-0.318
10,RRIRWRPPRLPRPRPRPGTYPRP,-0.127
11,RRIRVRPPRLPRPRPRPTRMPRP,0.0492
12,RRIRMRPPRLPRPRPRPLDHPRP,0.103
13,RRIRVRPPRLPRPRPRPAADPRP,0.437
14,RRIRDRPPRLPRPRPRPRDFPRP,0.106
15,RRIRLRPPRLPRPRPRPQKGPRP,-0.183
16,RRIRDRPPRLPRPRPRPIDTPRP,-0.3
17,RRIRARPPRLPRPRPRPLTPPRP,0.548
18,RRIRPRPPRLPRPRPRPQCLPRP,0.0368
19,RRIRLRPPRLPRPRPRPWPQPRP,0.244
20,RRIRKRPPRLPRPRPRPTLMPRP,0.758

row,Sequence,shrunken log2 fold change
1,RRIRARPPRLPRPRPRPKGFPRP,0.102
2,RRIRKRPPRLPRPRPRPDQFPRP,-0.0391
3,RRIRFRPPRLPRPRPRPVDDPRP,-0.601
4,RRIRERPPRLPRPRPRPTKPPRP,-0.394
5,RRIRQRPPRLPRPRPRPAEQPRP,-0.000243
6,RRIRCRPPRLPRPRPRPTFLPRP,-0.475
7,RRIRFRPPRLPRPRPRPTTSPRP,0.0366
8,RRIRMRPPRLPRPRPRPACEPRP,0.903
9,RRIRCRPPRLPRPRPRPETDPRP,-0.00874
10,RRIRSRPPRLPRPRPRPVWRPRP,0.33
11,RRIRIRPPRLPRPRPRPGSAPRP,0.267
12,RRIRNRPPRLPRPRPRPPFYPRP,-0.403
13,RRIRRRPPRLPRPRPRPYIVPRP,-0.263
14,RRIRARPPRLPRPRPRPDTYPRP,-0.11
15,RRIRVRPPRLPRPRPRPQVRPRP,0.0179
16,RRIRARPPRLPRPRPRPVLCPRP,0.43
17,RRIRQRPPRLPRPRPRPFNAPRP,-0.233
18,RRIRVRPPRLPRPRPRPAFMPRP,-0.352
19,RRIRYRPPRLPRPRPRPGDGPRP,0.0695
20,RRIRKRPPRLPRPRPRPCWFPRP,-0.0655

row,Sequence,shrunken log2 fold change
1,RRIRDRPPRLPRPRPRPQKYPRP,-0.432
2,RRIRRRPPRLPRPRPRPDFWPRP,0.647
3,RRIRLRPPRLPRPRPRPSVSPRP,-0.0466
4,RRIRLRPPRLPRPRPRPNIEPRP,-0.304
5,RRIRNRPPRLPRPRPRPQHQPRP,-0.135
6,RRIRHRPPRLPRPRPRPRWYPRP,-0.137
7,RRIRVRPPRLPRPRPRPKYDPRP,-0.269
8,RRIRRRPPRLPRPRPRPVFNPRP,0.056
9,RRIRARPPRLPRPRPRPANHPRP,-0.129
10,RRIRYRPPRLPRPRPRPSTMPRP,-0.434
11,RRIRHRPPRLPRPRPRPEFAPRP,0.0409
12,RRIRIRPPRLPRPRPRPPANPRP,-0.0976
13,RRIRYRPPRLPRPRPRPGPYPRP,-0.771
14,RRIRFRPPRLPRPRPRPRTSPRP,0.223
15,RRIRQRPPRLPRPRPRPGFCPRP,0.159
16,RRIRLRPPRLPRPRPRPFYRPRP,-0.295
17,RRIRFRPPRLPRPRPRPWIQPRP,-0.997
18,RRIRERPPRLPRPRPRPLMEPRP,0.0296
19,RRIRTRPPRLPRPRPRPAWLPRP,-0.0636
20,RRIRDRPPRLPRPRPRPMELPRP,0.0119
